Reference: US20230272028

Columns and labels:
[1] = system: ALU30-11
[2] = system: ALU30-10
[3] = system: ALU30-8
[4] = system: ALU30-16
[5] = system: ALU30-17
[6] = system: ALU30-12
[7] = system: ALU30-14
[8] = system: ALU30-15
[9] = system: ALU30-13
[10] = system: ALU30-1
[11] = system: ALU30-19
[12] = system: ALU30-18
[13] = system: ALU30-7
[14] = system: ALU30-9
[15] = system: ALU30-6
[16] = system: ALU30-5
[17] = system: ALU30-3
[18] = system: ALU30-2
[19] = system: ALU30-4
Chain of ALU30-4 (chain, as listed by the source): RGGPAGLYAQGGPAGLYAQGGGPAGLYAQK

Chain of ALU30-15 (chain, as listed by the source): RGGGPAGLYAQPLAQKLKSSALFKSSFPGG
Chain of ALU30-9 (chain, as listed by the source): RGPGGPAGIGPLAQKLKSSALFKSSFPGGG
Chain of MMP-9, recombinant human (chain, as listed by the source): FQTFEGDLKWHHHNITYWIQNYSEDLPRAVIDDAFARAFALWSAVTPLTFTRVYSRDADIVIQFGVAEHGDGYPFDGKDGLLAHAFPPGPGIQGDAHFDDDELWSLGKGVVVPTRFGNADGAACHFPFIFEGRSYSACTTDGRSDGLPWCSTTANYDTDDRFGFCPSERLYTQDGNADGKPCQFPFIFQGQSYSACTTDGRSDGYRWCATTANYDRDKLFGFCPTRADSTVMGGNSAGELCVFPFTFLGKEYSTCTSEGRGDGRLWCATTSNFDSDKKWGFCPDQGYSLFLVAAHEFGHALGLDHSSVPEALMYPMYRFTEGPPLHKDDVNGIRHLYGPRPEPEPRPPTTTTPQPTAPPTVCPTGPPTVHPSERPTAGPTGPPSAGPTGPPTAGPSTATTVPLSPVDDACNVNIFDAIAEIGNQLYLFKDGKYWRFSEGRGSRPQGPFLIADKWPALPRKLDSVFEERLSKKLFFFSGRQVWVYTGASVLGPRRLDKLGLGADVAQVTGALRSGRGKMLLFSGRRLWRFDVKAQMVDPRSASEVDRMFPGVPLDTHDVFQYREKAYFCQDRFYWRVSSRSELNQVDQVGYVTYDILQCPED
Chain of ALU30-12 (chain, as listed by the source): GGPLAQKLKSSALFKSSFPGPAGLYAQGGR
Chain of ALU30-8 (chain, as listed by the source): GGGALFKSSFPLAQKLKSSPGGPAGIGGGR
Chain of hepsin, recombinant human (chain, as listed by the source): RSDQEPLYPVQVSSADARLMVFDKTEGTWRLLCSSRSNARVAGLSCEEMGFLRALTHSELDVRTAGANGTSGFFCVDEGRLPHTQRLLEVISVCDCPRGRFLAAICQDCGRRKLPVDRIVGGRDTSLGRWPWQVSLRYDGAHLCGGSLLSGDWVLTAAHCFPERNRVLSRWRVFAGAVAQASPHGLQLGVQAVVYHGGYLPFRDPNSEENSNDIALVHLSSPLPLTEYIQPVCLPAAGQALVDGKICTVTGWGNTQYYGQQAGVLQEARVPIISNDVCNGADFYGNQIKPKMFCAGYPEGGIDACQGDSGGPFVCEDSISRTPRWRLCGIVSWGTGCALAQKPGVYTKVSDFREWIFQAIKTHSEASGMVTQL
Chain of ALU30-1 (chain, as listed by the source): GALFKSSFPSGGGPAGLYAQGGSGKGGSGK
Chain of ALU30-19 (chain, as listed by the source): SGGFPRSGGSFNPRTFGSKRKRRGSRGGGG
Chain of Factor Xa, recombinant human (chain): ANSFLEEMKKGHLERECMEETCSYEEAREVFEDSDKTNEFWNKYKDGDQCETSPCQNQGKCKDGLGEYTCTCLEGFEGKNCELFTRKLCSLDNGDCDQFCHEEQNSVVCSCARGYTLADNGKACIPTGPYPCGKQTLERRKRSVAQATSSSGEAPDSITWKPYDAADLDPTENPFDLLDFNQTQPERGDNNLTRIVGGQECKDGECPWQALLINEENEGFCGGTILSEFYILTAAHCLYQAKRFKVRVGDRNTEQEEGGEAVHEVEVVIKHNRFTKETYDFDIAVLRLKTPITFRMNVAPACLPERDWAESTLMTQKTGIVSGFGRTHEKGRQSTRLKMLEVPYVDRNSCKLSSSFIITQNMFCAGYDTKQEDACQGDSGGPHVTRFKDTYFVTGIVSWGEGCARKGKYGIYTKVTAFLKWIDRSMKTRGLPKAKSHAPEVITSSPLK
Chain of ALU30-14 (chain, as listed by the source): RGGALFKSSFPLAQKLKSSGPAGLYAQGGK
Chain of ALU30-16 (chain, as listed by the source): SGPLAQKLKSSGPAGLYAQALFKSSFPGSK
Chain of ALU30-10 (chain, as listed by the source): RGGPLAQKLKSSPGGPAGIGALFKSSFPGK
Chain of ALU30-6 (chain, as listed by the source): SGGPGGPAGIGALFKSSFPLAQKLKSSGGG
Chain of ALU30-2 (chain, as listed by the source): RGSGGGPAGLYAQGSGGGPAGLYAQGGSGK
Chain of ALU30-7 (chain, as listed by the source): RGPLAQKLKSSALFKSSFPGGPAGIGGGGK
Chain of ALU30-5 (chain, as listed by the source): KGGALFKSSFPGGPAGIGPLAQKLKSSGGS
Chain of ALU30-13 (chain, as listed by the source): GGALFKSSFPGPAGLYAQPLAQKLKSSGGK
Chain of ALU30-17 (chain, as listed by the source): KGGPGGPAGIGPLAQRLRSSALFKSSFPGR
Chain of ALU30-11 (chain, as listed by the source): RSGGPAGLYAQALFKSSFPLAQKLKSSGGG
Chain of ALU30-3 (chain, as listed by the source): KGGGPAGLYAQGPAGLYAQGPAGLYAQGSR
Chain of ALU30-18 (chain, as listed by the source): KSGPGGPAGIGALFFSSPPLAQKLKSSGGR

In the case of Factor Xa, recombinant human, the “30-mer peptide degradation by recombinant enzyme (MSP-MS)” value (from here on “30-mer peptide degradation”) [1] is reported as “all other peptides bearing a CTSL1_1 motif were cleaved by Factor Xa at either ALF|KSSFP (SEQ ID NO: 198) or ALFKS|SFP (SEQ ID NO: 198)”, the “30-mer peptide degradation” value [2] is reported as “all other peptides bearing a CTSL1_1 motif were cleaved by Factor Xa at either ALF|KSSFP (SEQ ID NO: 198) or ALFKS|SFP (SEQ ID NO: 198)” and the “30-mer peptide degradation” value [3] is reported as “all other peptides bearing a CTSL1_1 motif were cleaved by Factor Xa at either ALF|KSSFP (SEQ ID NO: 198) or ALFKS|SFP (SEQ ID NO: 198)”. For the same substance, the “30-mer peptide degradation” value [4] was “all other peptides bearing a CTSL1_1 motif were cleaved by Factor Xa at either ALF|KSSFP (SEQ ID NO: 198) or ALFKS|SFP (SEQ ID NO: 198)”, the “comparison of cleavage efficiencies across the 30-mer library” value (“comparison” for short) [4] was “the lowest susceptibility to thrombin, Factor Xa, and hepsin” and the “30-mer peptide degradation” value [5] was “all other peptides bearing a CTSL1_1 motif were cleaved by Factor Xa at either ALF|KSSFP (SEQ ID NO: 198) or ALFKS|SFP (SEQ ID NO: 198)”. For the same substance, the “30-mer peptide degradation” value [6] was “all other peptides bearing a CTSL1_1 motif were cleaved by Factor Xa at either ALF|KSSFP (SEQ ID NO: 198) or ALFKS|SFP (SEQ ID NO: 198)”, the “30-mer peptide degradation” value [7] was “all other peptides bearing a CTSL1_1 motif were cleaved by Factor Xa at either ALF|KSSFP (SEQ ID NO: 198) or ALFKS|SFP (SEQ ID NO: 198)” and the “30-mer peptide degradation” value [8] was “all other peptides bearing a CTSL1_1 motif were cleaved by Factor Xa at either ALF|KSSFP (SEQ ID NO: 198) or ALFKS|SFP (SEQ ID NO: 198)”. For the same substance, the “30-mer peptide degradation” value [9] was “all other peptides bearing a CTSL1_1 motif were cleaved by Factor Xa at either ALF|KSSFP (SEQ ID NO: 198) or ALFKS|SFP (SEQ ID NO: 198)”, the “30-mer peptide degradation” value [10] was “all other peptides bearing a CTSL1_1 motif were cleaved by Factor Xa at either ALF|KSSFP (SEQ ID NO: 198) or ALFKS|SFP (SEQ ID NO: 198)” and the “30-mer peptide degradation” value [11] was “Peptide Alu30-19 with this motif was completely degraded before the 5 min time point”. The “30-mer peptide degradation” value [12] was “The peptide with the motif CTSL1_2 was cleaved at the lowest efficiency”, the “30-mer peptide degradation” value [13] was “all other peptides bearing a CTSL1_1 motif were cleaved by Factor Xa at either ALF|KSSFP (SEQ ID NO: 198) or ALFKS|SFP (SEQ ID NO: 198)” and the “30-mer peptide degradation” value [14] was “all other peptides bearing a CTSL1_1 motif were cleaved by Factor Xa at either ALF|KSSFP (SEQ ID NO: 198) or ALFKS|SFP (SEQ ID NO: 198)”. The “30-mer peptide degradation” value [15] was “all other peptides bearing a CTSL1_1 motif were cleaved by Factor Xa at either ALF|KSSFP (SEQ ID NO: 198) or ALFKS|SFP (SEQ ID NO: 198)” and the “30-mer peptide degradation” value [16] was “the only library peptide with significant cleavage was Alu30-5, cleaved at the CTSL1_1 motif ALFKS|SFP (SEQ ID NO: 198), upstream of a FAPa_1 motif”.
For MMP-9, recombinant human, the “30-mer peptide degradation” value [2] was “the FAPa_1 motif was also cleaved within the peptides bearing FAPa_1 directly followed by the CTSL1_1 motif at PGGPAG|IGALF (SEQ ID NO: 247); these were lower efficiency cleavages”, the “30-mer peptide degradation” value [3] was “The FAPa_1 motif was not cleaved by MMP9, however, when followed either by the ADAM17_2 motif or the spacing residues GG” and the “30-mer peptide degradation” value [6] was “The slowest peptides bear the MMP14_1 motif near the C-terminus of the 30-mer peptide”. For the same substance, the “30-mer peptide degradation” value [17] was “The most efficient MMP9 substrates were those that bore three-repeats of the MMP14_1 motif”, the “30-mer peptide degradation” value [7] was “The slowest peptides bear the MMP14_1 motif near the C-terminus of the 30-mer peptide” and the “30-mer peptide degradation” value [8] was “The next most efficient substrates contained the pair of motifs where MMP14_1 was followed directly by ADAM17_2”. The “30-mer peptide degradation” value [18] was “The single or double MMP14_1 motif-bearing peptides were next in the order”, the “product formation at single bonds (MSP-MS)” value [18] was “the specific cleavage of the Alu30-2 peptide was more efficient than the Alu30-1 peptide” and the “30-mer peptide degradation” value [9] was “The next most efficient substrates contained the pair of motifs where MMP14_1 was followed directly by ADAM17_2”. The “30-mer peptide degradation” value [10] was “The single or double MMP14_1 motif-bearing peptides were next in the order”, the “product formation at single bonds (MSP-MS)” value [10] was “the specific cleavage of the Alu30-2 peptide was more efficient than the Alu30-1 peptide” and the “30-mer peptide degradation” value [13] was “The FAPa_1 motif was not cleaved by MMP9, however, when followed either by the ADAM17_2 motif or the spacing residues GG”. For the same substance, the “30-mer peptide degradation” value [14] was “The FAPa_1 motif was not cleaved by MMP9, however, when followed either by the ADAM17_2 motif or the spacing residues GG”, the “30-mer peptide degradation” value [19] was “The most efficient MMP9 substrates were those that bore three-repeats of the MMP14_1 motif” and the “30-mer peptide degradation” value [15] was “the FAPa_1 motif was also cleaved within the peptides bearing FAPa_1 directly followed by the CTSL1_1 motif at PGGPAG|IGALF (SEQ ID NO: 247); these were lower efficiency cleavages”. For the same substance, the “30-mer peptide degradation” value [16] was “The FAPa_1 motif was not cleaved by MMP9, however, when followed either by the ADAM17_2 motif or the spacing residues GG”.
hepsin, recombinant human was tested, and the “apparent catalytic efficiency (kcat/KM)” value [3] was “The authentic peptide Alu30-19, as well as the top cleaved peptides Alu30-8,-9, -12, and -14 all had apparent catalytic efficiencies on the same order of 105”, the “comparison” value [4] was “the lowest susceptibility to thrombin, Factor Xa, and hepsin” and the “apparent catalytic efficiency (kcat/KM)” value [6] was “The authentic peptide Alu30-19, as well as the top cleaved peptides Alu30-8,-9, -12, and -14 all had apparent catalytic efficiencies on the same order of 105”. The “apparent catalytic efficiency (kcat/KM)” value [7] was “The authentic peptide Alu30-19, as well as the top cleaved peptides Alu30-8,-9, -12, and -14 all had apparent catalytic efficiencies on the same order of 105”, the “comparison” value [8] was “it had slightly higher hepsin susceptibility and lower CTSL1 activity” and the “30-mer peptide degradation” value [11] was “Alu30-19 was cleaved at all three motifs within the first 15 min of the reaction”. For the same substance, the “apparent catalytic efficiency (kcat/KM)” value [11] was “The authentic peptide Alu30-19, as well as the top cleaved peptides Alu30-8,-9, -12, and -14 all had apparent catalytic efficiencies on the same order of 105” and the “apparent catalytic efficiency (kcat/KM)” value [14] was “The authentic peptide Alu30-19, as well as the top cleaved peptides Alu30-8,-9, -12, and -14 all had apparent catalytic efficiencies on the same order of 105”.
